Laboratory results published in patent US6407221.
Each block holds one molecule with its values, some of them ahead of it.

How the values were obtained:
Assay in all cases: cell-based or functional assay
[1] = target: Jurkat Ti β chain (human)
[2] = target: CD3 epsilon (human) (UniProt P07766)
[3] = target: CD4-zeta chimeric receptor F2 (human) (UniProt P01730)
[4] = target: CD4-zeta chimeric receptor F3 (human) (UniProt P01730)
[5] = target: native CD4 (human) (UniProt P01730)
[6] = target: human HLA Class 1 antigens
[7] = target: CD8/zeta chimera (human) (UniProt P01732)
Chain of UniProt P01732 (P01732 other isoform, or with tags, fused parts or gaps mutant): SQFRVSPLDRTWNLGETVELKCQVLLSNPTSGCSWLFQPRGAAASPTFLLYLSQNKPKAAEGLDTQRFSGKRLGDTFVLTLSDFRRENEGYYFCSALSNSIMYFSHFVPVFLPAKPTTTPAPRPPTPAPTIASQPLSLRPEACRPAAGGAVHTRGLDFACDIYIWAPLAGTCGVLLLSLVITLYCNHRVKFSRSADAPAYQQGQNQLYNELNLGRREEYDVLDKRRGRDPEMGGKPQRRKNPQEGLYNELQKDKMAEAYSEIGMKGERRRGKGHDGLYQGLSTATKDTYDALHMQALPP

[8] = target: wild-type CD8 protein (UniProt P01732)

Molecule: OKT3 (antibody)
IL2 produced relative to stimulation with Ionomycin, Jurkat clone CD4/1F7 (relative to Ionomycin = 100) [2]: 38
IL2 produced relative to stimulation with Ionomycin, Jurkat clone CD4/4.1 (relative to Ionomycin = 100) [2]: 65
IL2 produced relative to stimulation with Ionomycin, Jurkat clone F2/1A11 (relative to Ionomycin = 100) [2]: 51
IL2 produced relative to stimulation with Ionomycin, Jurkat clone F2/1D1 (relative to Ionomycin = 100) [2]: 59
IL2 produced relative to stimulation with Ionomycin, Jurkat clone F3/2.2 (relative to Ionomycin = 100) [2]: 65
IL2 produced relative to stimulation with Ionomycin, Jurkat clone F3/2.7 (relative to Ionomycin = 100) [2]: 92
absolute level of IL2 produced, Jurkat clone CD4/1F7 [2]: 2100 pg/mL
absolute level of IL2 produced, Jurkat clone CD4/4.1 [2]: 309 pg/mL
absolute level of IL2 produced, Jurkat clone F2/1A11 [2]: 918 pg/mL
absolute level of IL2 produced, Jurkat clone F2/1D1 [2]: 671 pg/mL
absolute level of IL2 produced, Jurkat clone F3/2.2 [2]: 481 pg/mL
absolute level of IL2 produced, Jurkat clone F3/2.7 [2]: 295 pg/mL

Molecule: OKT4A (antibody)
IL2 produced relative to stimulation with Ionomycin, Jurkat clone F2/1A11 (relative to Ionomycin = 100) [3]: 86
IL2 produced relative to stimulation with Ionomycin, Jurkat clone F2/1D1 (relative to Ionomycin = 100) [3]: 60
absolute level of IL2 produced, Jurkat clone F2/1A11 [3]: 543 pg/mL
absolute level of IL2 produced, Jurkat clone F2/1D1 [3]: 683 pg/mL
IL2 produced relative to stimulation with Ionomycin, Jurkat clone F3/2.2 (relative to Ionomycin = 100) [4]: 160
IL2 produced relative to stimulation with Ionomycin, Jurkat clone F3/2.7 (relative to Ionomycin = 100) [4]: 210
absolute level of IL2 produced, Jurkat clone F3/2.2 [4]: 1200 pg/mL
absolute level of IL2 produced, Jurkat clone F3/2.7 [4]: 671 pg/mL
IL2 produced relative to stimulation with Ionomycin, Jurkat clone CD4/1F7 (relative to Ionomycin = 100) [5]: 0.3
IL2 produced relative to stimulation with Ionomycin, Jurkat clone CD4/4.1 (relative to Ionomycin = 100) [5]: 2
absolute level of IL2 produced, Jurkat clone CD4/1F7 [5]: 19 pg/mL
absolute level of IL2 produced, Jurkat clone CD4/4.1 [5]: 9 pg/mL

Molecule: W6/32 (antibody)
IL2 produced relative to stimulation with Ionomycin, Jurkat clone CD4/1F7 (relative to Ionomycin = 100) [6]: 0.1
IL2 produced relative to stimulation with Ionomycin, Jurkat clone CD4/4.1 (relative to Ionomycin = 100) [6]: 0.7
IL2 produced relative to stimulation with Ionomycin, Jurkat clone F2/1A11 (relative to Ionomycin = 100) [6]: 10
IL2 produced relative to stimulation with Ionomycin, Jurkat clone F2/1D1 (relative to Ionomycin = 100) [6]: 11
IL2 produced relative to stimulation with Ionomycin, Jurkat clone F3/2.2 (relative to Ionomycin = 100) [6]: 3
IL-2 (Units/ml), JCD8/zeta 2, W6/32 + PMA, experiment #1 [6]: < 0.1 Units/ml
IL-2 (Units/ml), JCD8/zeta 2, W6/32 + PMA, experiment #2 [6]: < 0.1 Units/ml
IL-2 (Units/ml), Jurkat CD8, W6/32 + PMA, experiment #1 [6]: < 0.1 Units/ml
IL-2 (Units/ml), Jurkat CD8, W6/32 + PMA, experiment #2 [6]: < 0.1 Units/ml
absolute level of IL2 produced, Jurkat clone CD4/1F7 [6]: 3 pg/mL
absolute level of IL2 produced, Jurkat clone CD4/4.1 [6]: 3 pg/mL
absolute level of IL2 produced, Jurkat clone F2/1A11 [6]: 104 pg/mL
absolute level of IL2 produced, Jurkat clone F2/1D1 [6]: 123 pg/mL
absolute level of IL2 produced, Jurkat clone F3/2.2 [6]: 19 pg/mL
absolute level of IL2 produced, Jurkat clone F3/2.7 [6]: 0 pg/mL

Other lines, results leading:

IL-2 (Units/ml), JCD8/zeta 2, C305 + PMA, experiment #1 [1]: 3.7 Units/ml
IL-2 (Units/ml), JCD8/zeta 2, C305 + PMA, experiment #2 [1]: 2.1 Units/ml
IL-2 (Units/ml), Jurkat CD8, C305 + PMA, experiment #1 [1]: 13.5 Units/ml
IL-2 (Units/ml), Jurkat CD8, C305 + PMA, experiment #2 [1]: 9.1 Units/ml
internalization of the TCR after overnight incubation of JCD8/zeta 2 with saturating C305 [1]: 94%
Molecule: C305 (antibody)

IL-2 (Units/ml), JCD8/zeta 2, OKT8 + PMA, experiment #1 [7]: 6.8 Units/ml
IL-2 (Units/ml), JCD8/zeta 2, OKT8 + PMA, experiment #2 [7]: 7 Units/ml
IL-2 (Units/ml), Jurkat CD8, OKT8 + PMA, experiment #1 [8]: < 0.1 Units/ml
IL-2 (Units/ml), Jurkat CD8, OKT8 + PMA, experiment #2 [8]: < 0.1 Units/ml
B1: OKT8 (antibody, from another filing, V domains shown)
VH: EVQLQQSGAELVKPGASVKLSCTASGFNIKDTYIHFVRQRPEQGLEWIGRIDPANDNTLYASKFQGKATITADTSSNTAYMHLCSLTSGDTAVYYCGRGYGYYVFDHWGQGTTLTVSS
VL: DVQINQSPSFLAASPGETITINCRTSRSISQYLAWYQEKPGKTNKLLIYSGSTLQSGIPSRFSGSGSGTDFTLTISGLEPEDFAMYYCQQHNENPLTFGAGTKLELK
